The results in this text go back to article PMC9606859, “Chemical Synthesis of Trans 8-Methyl-6-Nonenoyl-CoA and Functional Expression Unravel Capsaicin Synthase Activity Encoded by the Pun1 Locus” (Molecules, 2022).

Substrate in this data set: CC(C)/C=C/CCCCC(=O)SCCNC(=O)CCNC(=O)[C@H](O)C(C)(C)COP(=O)(O)OP(=O)(O)OC[C@H]1O[C@@H](n2cnc3c(N)ncnc32)[C@H](O)[C@@H]1OP(=O)(O)O
Description: HPLC/MS capsaicin formation. It counts as biochemical, Capsicum chinense. Particulars: co-substrate vanilloylamine (saturating per Figure S3), 50 mM TRIS/HCl pH 7.5, 150 mM NaCl, 10% glycerol, 1 mM TCEP, partly purified enzyme, single measurement, three technical replicates.

B1: recombinant capsaicin synthase (AT3, Pun1) (Capsicum chinense) (protein)
chain: MAFALPSSLVSVCDKSFIKPSSLTPSTLRFHKLSFIDQSLSNMYIPCAFFYPKVQQRLEDSKNSDELSHIAHLLQTSLSQTLVSYYPYAGKLKDNATVDCNDMGAEFLSVRIKCSMSEILDHPHASLAESIVLPKDLPWANNCEGGNLLVVQVSKFDCGGIAISVCFSHKIGDGCSLLNFLNDWSSVTRDHTTTTLVPSPRFVGDSVFSTKTYGSLTTPQILSDLNECVQKRLIFPTDKLDALRAKVAEESGVKNPTRAEVVSALLFKCATKASSSMLPSKLVHFLNIRTMIKPRLPRNTIGNLSSIFSIEATNMQDMELPTLVRNLRKEVEVAYKKDQVEQNELILEVVESMREGKLPFENMDGYENVYTCSNLCKYPYYTVDFGWGRPERVCLGNGPSKNAFFLKDYKAGQGVEARVMLHKQQMSEFERNEELLEFIA
notes: full length, codon-optimized 1332 bp NdeI/XhoI fragment in pET-16b, His-tag (2 kDa) kept; E. coli SoluBL21; partly purified (Ni-NTA, SEC); monomer
One may read the Km as the substrate concentration at which the rate is half of its maximum. For B1, the Km amounted to 480 ± 240 µM.
